Data on one molecule can be found in article PMC5750235.

The target of one test is IgE Fc Cε2–4 (human). Kind of test: SPR; Biacore T200; IgE Fc immobilized (110 RU) on CM5 by NHS/EDC; 026 sdab injected 0.003-50 µg/ml, 25 µl/min; 25 °C; 10 mM monosodium phosphate, 40 mM disodium phosphate, 100 mM NaCl, pH 7.4, 0.01% Tween-20; 1:1 binding model. (In general: In SPR one partner is held on a chip, and binding of the other changes the refractive index at the surface.)

Test [1] deals with IgE on the surface of patients' basophils (human (endogenous in patients' blood)). Kind of test: flow cytometry on cells; EDTA blood of allergic donors preincubated with 026 sdab (0 to 45 µmol/l) for up to 60 min in IL-3-containing stimulation buffer; remaining surface IgE on basophils stained with anti-IgE-FITC.
Chain of IgE on the surface of patients' basophils (human (endogenous in patients' blood)) (P01854 whole entry): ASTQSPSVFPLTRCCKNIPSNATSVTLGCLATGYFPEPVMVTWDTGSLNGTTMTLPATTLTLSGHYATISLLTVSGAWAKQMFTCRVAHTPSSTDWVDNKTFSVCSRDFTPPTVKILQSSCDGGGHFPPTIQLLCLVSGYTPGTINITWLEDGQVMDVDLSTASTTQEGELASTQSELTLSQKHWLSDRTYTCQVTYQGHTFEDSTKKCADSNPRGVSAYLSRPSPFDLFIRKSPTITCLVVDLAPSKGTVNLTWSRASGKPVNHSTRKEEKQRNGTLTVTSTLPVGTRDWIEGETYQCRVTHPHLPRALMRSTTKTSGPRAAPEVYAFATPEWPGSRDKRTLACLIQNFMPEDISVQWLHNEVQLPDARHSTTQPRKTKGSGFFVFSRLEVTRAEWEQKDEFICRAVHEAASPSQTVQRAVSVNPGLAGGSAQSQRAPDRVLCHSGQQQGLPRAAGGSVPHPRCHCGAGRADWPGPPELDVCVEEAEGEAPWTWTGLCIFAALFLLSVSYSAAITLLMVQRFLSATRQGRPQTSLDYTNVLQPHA

B1: 026 sdab (VHH)
VHH: EVQLLESGGGLVQPGGSLRLSCAASGFTFGNYDMAWVRQAPGKRPEWVSSIDTGGDITHYADSVKGRFTISRDNAKNTLYLQMNSLRPEDTAVYWCATDEEYALGPNEFDYYGQGTLVTVSS
In general, Kd refers to the equilibrium constant for the complex coming apart. For B1, the Kd in the test with IgE Fc Cε2–4 (human) came out at 1.4 nM. Also, in test [1], the surface IgE left on basophils after 15 min with 026 sdab was 30% and the surface IgE left on basophils after prolonged incubation with 026 sdab was found to be 20%.
